Assay results published in patent US4770993A, “Hybridoma tumor cell lines and their monoclonal antibodies to thaumatin” (Beatrice Companies, Inc., priority 1985, dated 1988).
Changes are numbered by the printed parent chain.

B1: Thaumatin I: plant thaumatin I (obtained from Sigma Chemical Co.), sweet-tasting protein of Thaumatococcus daniellii, purified on an ion exchange column (protein, UniProt P02883 23-229, looked up)
Thaumatin I: ATFEIVNRCSYTVWAAASKGDAALDAGGRQLNSGESWTINVEPGTNGGKIWARTDCYFDDSGSGICKTGDCGGLLRCKRFGRPPTTLAEFSLNQYGKDYIDISNIKGFNVPMDFSPTTRGCRGVRCAADIVGQCPAKLKAPGGGCNDACTVFQTSEYCCTTGKCGPTEYSRFFKRLCPDAFSYVLDKPTTVTCPGSSNYRVTFCPTA
B2: Performic acid oxidized thaumatin: denatured thaumatin I prepared by incubation of thaumatin I in a chilled performic acid solution (protein, UniProt P02883 23-229, looked up)
Thaumatin I: B1 Thaumatin I
modifications: performic acid oxidized
notes: denatured thaumatin I prepared by incubation of thaumatin I in a chilled performic acid solution
B3: Thaumatin II: plant thaumatin II, sweet-tasting protein of Thaumatococcus daniellii (protein, UniProt P02884 23-229, looked up)
Thaumatin II: B1 Thaumatin I with N46K, S63R, K67R, R76Q

Experiments:
[1] = tested on: monoclonal antibody of clone No. 29; test: Competition assay between native plant thaumatin I and monellin, clone No. 29 antibody; assay type: binding, mouse
[2] = in words; cited from earlier work
[3] = cited from earlier work; for taste responses: in words
[4] = tested on: clone No. 3 monoclonal antibodies; test: Competition ELISA, inhibition of binding of clone No. 3 monoclonal antibodies to native plant thaumatin I; set-up: species or system mouse
Description: (§1) The following procedure is utilized to carry out enzyme linked immunosorbance assays (ELISA) for thaumatin. All reactions are carried out at room temperature and the ELISA plate is covered with Saran brand plastic wrap at all stages and is incubated within a humidified chamber. ELISA plates are coated by placing 10 ng of thaumatin I purified according to the procedure of example 1 in 50 μl of 25 mM NaHCO3 (pH 9.2). This is incubated at room temperature for 2 hours. The plates are washed twice with 400 μl of PBS (50 mM potassium phosphate, 150 mM NaCl, (pH 7.4) and Tween 20 (0.05%)) (a detergent manufactured by Sigma Chemical Co.) and then twice with 400 μl water. The plates are then coated with 200 μl of 1% bovine serum albumin (BSA) in PBS-Tween 20 (0.025% solution) for 2 hours at room temperature. The plates are again washed twice with 400 μl of the PBS-Tween solution and twice with water.
(§2) Fifty μl of media from the culture to be tested is then added. Normal, unfused myeloma cell (Sp2-0/Ag-14) media is used as the negative control. Mouse serum at a dilution of 1:500 or greater is used as a positive control. The media is then incubated for at least four hours at room temperature. The plates are then again washed twice with 400 μl of PBS-Tween 20 solution and then twice with water. Fifty μl of a 1:100 dilution of rabbit anti-mouse light K and λ chain immunoglobulin is added and this is incubated for 2 hours at room temperature. The plates are again washed twice with 400 μl of 0.5% PBS-Tween 20 solution and twice with water. Fifty μl of conjugated goat anti-rabbit IgG peroxidase at a 1:1000 dilution is then added and incubated for 1 hour at room temperature. The plates are once more washed twice with 400 μl PBS-Tween 20 solution and twice with water.
(§3) Fifty μl of O-phenylenediamine dihydrochloride (OPD) solution containing 0.01% of H2 O2 is added to each well (OPD solution comprises 18 mg of OPD per 30 ml of staining buffer which itself comprises 4.86 ml of 0.5 M citric acid and 10.28 ml of 0.5 M Na2 HPO4 diluted up to 100 ml with water). The H2 O2 should be added to the OPD only seconds before application. This mixture is then incubated for 5-15 minutes at room temperature until the reaction is stopped by addition of 50 μl of 4N H2 SO4. The optical density of the wells is then measured at 490 nm by a Bio-Tek ELISA reader.
(§4) In this example, the inhibition effect of recombinant yeast produced thaumatin analogue-glutathione adduct and of performic acid oxidized plant thaumatin on binding of clone No. 3 monoclonal antibodies to native plant thaumatin I was evaluated. ELISA plates were coated with 10 ng of native plant thaumatin I per well. The antibodies were preincubated with control buffer or with various amounts of test materials for 2 hours and were added to the plates. The plates were then developed according to the ELISA procedure of Example 3.

[5] = tested on: clone No. 29 monoclonal antibodies; test: Competition ELISA, inhibition of binding of clone No. 29 monoclonal antibodies to native plant thaumatin I; set-up: species or system mouse
Description: as §1
as §2, with “Mouse serum at a dilution of 1:500 or greater is used as a positive control.” left out
as §3
as §4, with “this example” for “this example, the”, “oxidized” for “oxidized plant”, “No. 29” for “No. 3”

Molecule | Inhibition (%) ([1]; amount of protein 10 ng) | Inhibition (%) ([1]; amount of protein 50 ng) | Inhibition (%) ([1]; amount of protein 100 ng) | Inhibition (%) ([1]; amount of protein 1 μg) | Inhibition (%) ([1]; amount of protein 10 μg) | Inhibition (%) ([1]; amount of protein 100 μg) | cariogenicity [2] | toxicity [2] | taste responses [3] | Inhibition of Binding (%) ([4]; addition 100 ng) | Inhibition of Binding (%) ([4]; addition 200 ng) | Inhibition of Binding (%) ([4]; addition 500 ng) | Inhibition of Binding (%) ([4]; addition 1 μg) | Inhibition of Binding (%) ([4]; addition 2 μg) | Inhibition of Binding (%) ([5]; addition 100 ng) | Inhibition of Binding (%) ([5]; addition 200 ng) | Inhibition of Binding (%) ([5]; addition 500 ng) | Inhibition of Binding (%) ([5]; addition 1 μg) | Inhibition of Binding (%) ([5]; addition 2 μg) | further results
Monellin | not detectable | not detectable | not detectable | 15 | 60 | 98 |  |  |  |  |  |  |  |  |  |  |  |  |  | concentration inhibiting binding relative to thaumatin ([1]; monellin versus thaumatin): ten fold greater
B1 | not detectable | not detectable | 25% | 62.5 | 94 | 95 | non-cariogenic | non-toxic | elicit profound taste responses | 16 | 30 | 50 | 60 | 80 | 5 | 30 | 51 | 65 | 80 | sweetness relative to sucrose ([3]; on a weight basis): about 5000 times sweeter than sucrose
B2 |  |  |  |  |  |  |  |  |  | 0 | 0 | 0 | 0 | 6 | 8 | 29.5 | 49 | 64 | 82 | inhibition in the assay ([4]; preincubation with clone No. 3 antibody, in words): little or no inhibition; competition with native plant thaumatin I for clone No. 29 antibody ([5]; in words): compete effectively
B3 |  |  |  |  |  |  | non-cariogenic | non-toxic | elicit profound taste responses |  |  |  |  |  |  |  |  |  |  | 
